Article PMC2886305 (Molecular cell, 2010)
Values belong to the molecule of their own block, whether it stands above or below them. Where no end group is shown, it is not given here.

Key:
[1] = system: CBX7 chromodomain (CBX7CD); assay: fluorescence anisotropy; details: not given in material (buffer, salt, pH and temperature in supplement)
[2] = target: H3K9me3 peptide of the fluorescence anisotropy assay; assay: fluorescence polarisation
[3] = target: T1, CBX7CD (Mus musculus, UniProt Q8VDS3); type: binding; details: fluorescence anisotropy, fluorescein-labeled peptide; measured in triplicate
T1 sequence (Q8VDS3 11-69 limits assumed): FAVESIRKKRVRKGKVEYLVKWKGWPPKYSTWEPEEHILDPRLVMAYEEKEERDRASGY

[4] = system: CBX7 at INK4b/ARF/INK4a locus, PC3 cells; assay: ChIP of CBX7 occupation in PC3 cells treated with α-amanitin; type: cell-based, human; details: whole PC3 cell treatment, 10 μg/ml, relative to histone H3
[5] = system: RNA Pol II (ANRIL transcription), PC3 nuclei; assay: In vitro transcription of ANRIL from PC3 whole nuclei; type: cell-based, human; details: [α-32P]-UTP incorporation
[6] = system: INK4b/ARF/INK4a locus, PC3 cell nuclei; assay: Quantitative ChIP of PC3 nuclei after RNase A; type: cell-based, human
[7] = target: T2, CBX7 chromodomain ( (human or mouse cDNA cloned), UniProt Q8VDS3 1-71); assay: fluorescence polarisation
T2 sequence: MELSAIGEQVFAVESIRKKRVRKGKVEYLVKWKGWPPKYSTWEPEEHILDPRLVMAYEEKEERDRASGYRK

[8] = RNase A treatment of PC3 cell nuclei

Molecule: ANRIL loop A RNA
Kd [1]: 13.7 µM

Molecule: ANRIL loop B RNA
Kd [1]: 30.2 µM

Molecule: ANRIL loop C RNA
Kd [1]: 14.6 µM

Kd [2]: 16.5 µM
Molecule: CBX7 chromodomain (from UniProt Q8VDS3 1-71) (domain or fragment)

Kd [3]: 16.5 ± 0.8 µM
Molecule: H3K9me3: H3K9me3 peptide (histone H3 methylated at lysine 9)

Molecule: α-amanitin
CBX7 levels (ChIP) [4]: depleted levels of CBX7 | sensitivity of nascent ANRIL transcription [5]: shows sensitivity to α-amanitin

B1: RNase A: ribonuclease A (protein, UniProt P61823 27-150, looked up)
Ribonuclease pancreatic: KETAAAKFERQHMDSSTSAASSSNYCNQMMKSRNLTKDRCKPVNTFVHESLADVQAVCSQKNVACKNGQTNCYQSYSTMSITDCRETGSSKYPNCAYKTTQANKHIIVACEGNPYVPVHFDASV
site occupation by CBX7, PHC2, Bmi1 and Suz12 [6, 8]: dramatically reduced | total levels of H1 and H3 [6, 8]: remained about the same | levels of trimethylated H3K27 and ubiquitinated H2AK119 ([6]; RNase A treatment, at CBX7 occupation sites): greatly reduced

Kd [7]: 59 ± 4.7 µM
B2: fluorescein-labeled H3K27me3 peptide (peptide)
chain: APRKQLATKAARK(Me3)SAP
modifications: also: fluorescein label (position not given here)
